Reference: the supplement of paper PMC10567573

B1: KLHDC10 (parent)
chain: FGGTGIPFGESNGNGVHVCNVKYK

Variants of: B1
Experiment: protein stability index of a GFP-peptide fusion (GPS, HEK-293T) (PSI 1-6); higher = more stable
Settings: c terminus: a fixed tail appended
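Further: lentivirally expressed fusions sorted by FACS into six bins by GFP to DsRed ratio, PSI derived from sequencing read proportions per bin multiplied by bin number.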

| Variant | protein stability index |
| --- | --- |
| FGPTGIPFGESNGNGVHVCNVKYK [G3P] | 2.78 |
| FGRTGIPFGESNGNGVHVCNVKYK [G3R] | 2.77 |
| FGQTGIPFGESNGNGVHVCNVKYK [G3Q] | 2.88 |
| FGITGIPFGESNGNGVHVCNVKYK [G3I] | 2.13 |
| FGYTGIPFGESNGNGVHVCNVKYK [G3Y] | 1.95 |
| FGGTGIPFGESNGNGHHVCNVKYK [V16H] | 2.1 |
| FGGTGIPFGESNGNGAHVCNVKYK [V16A] | 2.6 |
| FGGTGIPFGESNGNGWHVCNVKYK [V16W] | 2.49 |
| FGGTGIPFGESNGNGTHVCNVKYK [V16T] | 1.98 |
| FGGTGIPFGESNGNGSHVCNVKYK [V16S] | 2.27 |
| FGGTGIPFGESNGNGNHVCNVKYK [V16N] | 2.06 |
| FGGTGIPFGESNGNGPHVCNVKYK [V16P] | 2.43 |
| FGGTGIPFGESNGNGLHVCNVKYK [V16L] | 1.39 |
| FGGTGIPFGESNGNGCHVCNVKYK [V16C] | 1.19 |
| FGGTGIMFGESNGNGVHVCNVKYK [P7M] | 1.29 |
| FGGTGIGFGESNGNGVHVCNVKYK [P7G] | 2.23 |
| FGGTGICFGESNGNGVHVCNVKYK [P7C] | 1.5 |
| FGGTGIVFGESNGNGVHVCNVKYK [P7V] | 2.92 |
| FGGTGIDFGESNGNGVHVCNVKYK [P7D] | 2.92 |
| FGGTGIPFGESNGNEVHVCNVKYK [G15E] | 2.34 |
| FGGTGIPFGESNGNMVHVCNVKYK [G15M] | 1.52 |
| FGGTGIPFGESNGNFVHVCNVKYK [G15F] | 1.49 |
| FGGTGIPFGESNGNRVHVCNVKYK [G15R] | 1.82 |
| FGGTGIPFGESNGNHVHVCNVKYK [G15H] | 1.9 |

| Variant | protein stability index |
| --- | --- |
| FGGTGIPFGESNGNQVHVCNVKYK [G15Q] | 1.78 |
| FGGTGIPFGESNGNPVHVCNVKYK [G15P] | 2.06 |
| FGGMGIPFGESNGNGVHVCNVKYK [T4M] | 1.65 |
| FGGIGIPFGESNGNGVHVCNVKYK [T4I] | 3.13 |
| FGGFGIPFGESNGNGVHVCNVKYK [T4F] | 2.08 |
| FGGDGIPFGESNGNGVHVCNVKYK [T4D] | 2.52 |
| FGGCGIPFGESNGNGVHVCNVKYK [T4C] | 1.94 |
| FGGAGIPFGESNGNGVHVCNVKYK [T4A] | 2.02 |
| FGGKGIPFGESNGNGVHVCNVKYK [T4K] | 1.72 |
| FGGLGIPFGESNGNGVHVCNVKYK [T4L] | 1.82 |
| FGGSGIPFGESNGNGVHVCNVKYK [T4S] | 1.82 |
| FGGHGIPFGESNGNGVHVCNVKYK [T4H] | 1.9 |
| FGGTGIPFGECNGNGVHVCNVKYK [S11C] | 1.82 |
| FGGTGIPFGEINGNGVHVCNVKYK [S11I] | 2.73 |
| FGGTGIPFGEFNGNGVHVCNVKYK [S11F] | 1.72 |
| TGGTGIPFGESNGNGVHVCNVKYK [F1T] | 3.98 |
| SGGTGIPFGESNGNGVHVCNVKYK [F1S] | 4.25 |
| RGGTGIPFGESNGNGVHVCNVKYK [F1R] | 3.54 |
| GGGTGIPFGESNGNGVHVCNVKYK [F1G] | 4.3 |
| EGGTGIPFGESNGNGVHVCNVKYK [F1E] | 3.67 |
| NGGTGIPFGESNGNGVHVCNVKYK [F1N] | 4.34 |
| FGGTGIPFGESNGPGVHVCNVKYK [N14P] | 1.91 |
| FGGTGIPFGESNGMGVHVCNVKYK [N14M] | 1.99 |
| FGGTGIPFGESNGQGVHVCNVKYK [N14Q] | 2.03 |

| Variant | protein stability index |
| --- | --- |
| FGGTGIPFGESNGFGVHVCNVKYK [N14F] | 1.62 |
| FGGTGIPFGESNGWGVHVCNVKYK [N14W] | 3.08 |
| FGGTGIPFGESNGVGVHVCNVKYK [N14V] | 2.67 |
| FGGTGIPFGESNGLGVHVCNVKYK [N14L] | 1.81 |
| FGGTGIPFGESNGHGVHVCNVKYK [N14H] | 2.12 |
| FGGTGIPFGESNGTGVHVCNVKYK [N14T] | 1.98 |
| FGGTGIPFGESNGGGVHVCNVKYK [N14G] | 1.54 |
| FGGTGIPFGASNGNGVHVCNVKYK [E10A] | 2.94 |
| FGGTGIPFGKSNGNGVHVCNVKYK [E10K] | 1.46 |
| FGGTGIPFGLSNGNGVHVCNVKYK [E10L] | 2.43 |
| FGGTGIPFGTSNGNGVHVCNVKYK [E10T] | 1.62 |
| FGGTGIPFGDSNGNGVHVCNVKYK [E10D] | 1.73 |
| FGGTGIPFGGSNGNGVHVCNVKYK [E10G] | 1.68 |
| FGGTGIPFGNSNGNGVHVCNVKYK [E10N] | 3.06 |
| FGGTGIPFGESNVNGVHVCNVKYK [G13V] | 2.17 |
| FGGTGIPFGESNQNGVHVCNVKYK [G13Q] | 2.38 |
| FGGTGIPFGESNLNGVHVCNVKYK [G13L] | 2.05 |
| FGGTGIPFGESNCNGVHVCNVKYK [G13C] | 1.59 |
| FGGTGIPFGESNTNGVHVCNVKYK [G13T] | 2.58 |
| FGGTGIPFGESNENGVHVCNVKYK [G13E] | 2.28 |
| FGGTGIPFGESNFNGVHVCNVKYK [G13F] | 1.9 |
| FGGTGIPFCESNGNGVHVCNVKYK [G9C] | 1.41 |
| FGGTGIPFVESNGNGVHVCNVKYK [G9V] | 2.57 |
| FGGTGIPFRESNGNGVHVCNVKYK [G9R] | 1.76 |

| Variant | protein stability index |
| --- | --- |
| FGGTGIPFIESNGNGVHVCNVKYK [G9I] | 2.16 |
| FGGTGIPFMESNGNGVHVCNVKYK [G9M] | 1.18 |
| FGGTGIPFHESNGNGVHVCNVKYK [G9H] | 2.72 |
| FGGTGIPFLESNGNGVHVCNVKYK [G9L] | 1.39 |
| FGGTGIPFDESNGNGVHVCNVKYK [G9D] | 3.04 |
| FGGTGIPFYESNGNGVHVCNVKYK [G9Y] | 2.15 |
| FGGTGIPFGESNGNGVHVCAVKYK [N20A] | 2.35 |
| FGGTGIPFGESNGNGVHVCGVKYK [N20G] | 1.66 |
| FGGTGIPFGESNGNGVHVCIVKYK [N20I] | 1.82 |
| FGGTGIPFGESNGNGVHVCFVKYK [N20F] | 2.06 |
| FGGTGIPFGESNGNGVHVCYVKYK [N20Y] | 2.23 |
| FGGTGIPFGESNGNGVHVPNVKYK [C19P] | 2.21 |
| FGGTGIPFGESNGNGVHVNNVKYK [C19N] | 2.38 |
| FGGTGIPFGESNGNGVHVMNVKYK [C19M] | 2.15 |
| FGGTGIPFGESNGNGVHVDNVKYK [C19D] | 2.62 |
| FGGTGIPFGESNGNGVHVVNVKYK [C19V] | 2.07 |
| FGGTGIPFGESNGNGVHVYNVKYK [C19Y] | 2.06 |
| FGGTGIPFGESNGNGVHVLNVKYK [C19L] | 1.97 |
| FGGTGIPFGESNGNGVHVWNVKYK [C19W] | 1.71 |
| FGGTGIPFGESNGNGVHVTNVKYK [C19T] | 2.01 |
| FGGTGIPFGESNGNGVHVINVKYK [C19I] | 1.75 |
| FGGTGIPFGESNGNGVHVSNVKYK [C19S] | 2.01 |
